Values quoted from earlier work, collected in patent US12258594B2, “Cas proteins with reduced immunogenicity and methods of screening thereof” (THE BROAD INSTITUTE, INC., priority 2018, dated 2025).
Positions count from the first letter of the chain named. Names and notes keep the numbering of the source.

B1: SaCas9 T787A: T787A mutant of SaCas9 (protein, UniProt J7RUA5 1-1053, looked up, variant T787A)
CRISPR-associated …: MKRNYILGLDIGITSVGYGIIDYETRDVIDAGVRLFKEANVENNEGRRSKRGARRLKRRRRHRIQRVKKLLFDYNLLTDHSELSGINPYEARVKGLSQKLSEEEFSAALLHLAKRRGVHNVNEVEEDTGNELSTKEQISRNSKALEEKYVAELQLERLKKDGEVRGSINRFKTSDYVKEAKQLLKVQKAYHQLDQSFIDTYIDLLETRRTYYEGPGEGSPFGWKDIKEWYEMLMGHCTYFPEELRSVKYAYNADLYNALNDLNNLVITRDENEKLEYYEKFQIIENVFKQKKKPTLKQIAKEILVNEEDIKGYRVTSTGKPEFTNLKVYHDIKDITARKEIIENAELLDQIAKILTIYQSSEDIQEELTNLNSELTQEEIEQISNLKGYTGTHNLSLKAINLILDELWHTNDNQIAIFNRLKLVPKKVDLSQQKEIPTTLVDDFILSPVVKRSFIQSIKVINAIIKKYGLPNDIIIELAREKNSKDAQKMINEMQKRNRQTNERIEEIIRTTGKENAKYLIEKIKLHDMQEGKCLYSLEAIPLEDLLNNPFNYEVDHIIPRSVSFDNSFNNKVLVKQEENSKKGNRTPFQYLSSSDSKISYETFKKHILNLAKGKGRISKTKKEYLLEERDINRFSVQKDFINRNLVDTRYATRGLMNLLRSYFRVNNLDVKVKSINGGFTSFLRRKWKFKKERNKGYKHHAEDALIIANADFIFKEWKKLDKAKKVMENQMFEEKQAESMPEIETEQEYKEIFITPHQIKHIKDFKDYKYSHRVDKKPNRELINDALYSTRKDDKGNTLIVNNLNGLYDKDNDKLKKLINKSPEKLLMYHHDPQTYQKLKLIMEQYGDEKNPLYKYYEETGNYLTKYSKKDNGPVIKKIKYYGNKLNAHLDITDDYPNSRNKVVKLSLKPYRFDVYLDNGVYKFVTVKNLDVIKKENYYEVNSKCYEEAKKLKKISNQAEFIASFYNNDLIKINGELYRVIGVNNDLLNRIEVNMIDITYREYLENMNDKRPPRIIKTIASKTQSIKKYSTDILGNLYEVKSKKHPQIIKKG
B2: D10A: D10A mutant of SaCas9 (protein, UniProt J7RUA5 1-1053, looked up, variant D10A)
CRISPR-associated …: B1 CRISPR-associated … with D10A, A787T
B3: D704A: D704A mutant of SaCas9 (protein, UniProt J7RUA5 1-1053, looked up, variant D704A)
CRISPR-associated …: B1 CRISPR-associated … with D704A, A787T
B4: E477A: E477A mutant of SaCas9 (protein, UniProt J7RUA5 1-1053, looked up, variant E477A)
CRISPR-associated …: B1 CRISPR-associated … with E477A, A787T
B5: N580A: N580A mutant of SaCas9 (protein, UniProt J7RUA5 1-1053, looked up, variant N580A)
CRISPR-associated …: B1 CRISPR-associated … with N580A, A787T
B6: H557A: H557A mutant of SaCas9 (protein, UniProt J7RUA5 1-1053, looked up, variant H557A)
CRISPR-associated …: B1 CRISPR-associated … with H557A, A787T
B7: Lys998: LbuCas13a with Lys998 substituted with alanine (protein, UniProt C7NBY4 1-1159, looked up, variant K998A)
CRISPR-associated …: MKVTKVGGISHKKYTSEGRLVKSESEENRTDERLSALLNMRLDMYIKNPSSTETKENQKRIGKLKKFFSNKMVYLKDNTLSLKNGKKENIDREYSETDILESDVRDKKNFAVLKKIYLNENVNSEELEVFRNDIKKKLNKINSLKYSFEKNKANYQKINENNIEKVEGKSKRNIIYDYYRESAKRDAYVSNVKEAFDKLYKEEDIAKLVLEIENLTKLEKYKIREFYHEIIGRKNDKENFAKIIYEEIQNVNNMKELIEKVPDMSELKKSQVFYKYYLDKEELNDKNIKYAFCHFVEIEMSQLLKNYVYKRLSNISNDKIKRIFEYQNLKKLIENKLLNKLDTYVRNCGKYNYYLQDGEIATSDFIARNRQNEAFLRNIIGVSSVAYFSLRNILETENENDITGRMRGKTVKNNKGEEKYVSGEVDKIYNENKKNEVKENLKMFYSYDFNMDNKNEIEDFFANIDEAISSIRHGIVHFNLELEGKDIFAFKNIAPSEISKKMFQNEINEKKLKLKIFRQLNSANVFRYLEKYKILNYLKRTRFEFVNKNIPFVPSFTKLYSRIDDLKNSLGIYWKTPKTNDDNKTKEIIDAQIYLLKNIYYGEFLNYFMSNNGNFFEISKEIIELNKNDKRNLKTGFYKLQKFEDIQEKIPKEYLANIQSLYMINAGNQDEEEKDTYIDFIQKIFLKGFMTYLANNGRLSLIYIGSDEETNTSLAEKKQEFDKFLKKYEQNNNIKIPYEINEFLREIKLGNILKYTERLNMFYLILKLLNHKELTNLKGSLEKYQSANKEEAFSDQLELINLLNLDNNRVTEDFELEADEIGKFLDFNGNKVKDNKELKKFDTNKIYFDGENIIKHRAFYNIKKYGMLNLLEKIADKAGYKISIEELKKYSNKKNEIEKNHKMQENLHRKYARPRKDEKFTDEDYESYKQAIENIEEYTHLKNKVEFNELNLLQGLLLRILHRLVGYTSIWERDLRFRLKGEFPENQYIEEIFNFENAKNVKYKGGQIVEKYIKFYKELHQNDEVKINKYSSANIKVLKQEKKDLYIRNYIAHFNYIPHAEISLLEVLENLRKLLSYDRKLKNAVMKSVVDILKEYGFVATFKIGADKKIGIQTLESEKIVHLKNLKKKKLMTDRNSEELCKLVKIMFEYKMEEKKSEN
B8: His473: LbuCas13a with His473 substituted with alanine (protein, UniProt C7NBY4 1-1159, looked up, variant H473A)
CRISPR-associated …: B7 CRISPR-associated … with H473A, A998K
B9: Phe995: LbuCas13a with Phe995 substituted with alanine (protein, UniProt C7NBY4 1-1159, looked up, variant F995A)
CRISPR-associated …: B7 CRISPR-associated … with F995A, A998K
B10: Asn997: LbuCas13a with Asn997 substituted with alanine (protein, UniProt C7NBY4 1-1159, looked up, variant N997A)
CRISPR-associated …: B7 CRISPR-associated … with N997A, A998K
B11: Lys718Ala: Lys718Ala mutant of LbuCas13a (protein, UniProt C7NBY4 1-1159, looked up, variant K718A)
CRISPR-associated …: B7 CRISPR-associated … with K718A, A998K
B12: Gln519Ala: Gln519Ala mutant of LbuCas13a (protein, UniProt C7NBY4 1-1159, looked up, variant Q519A)
CRISPR-associated …: B7 CRISPR-associated … with Q519A, A998K
B13: Lys845Ala: Lys845Ala mutant of LbuCas13a (protein, UniProt C7NBY4 1-1159, looked up, variant K845A)
CRISPR-associated …: B7 CRISPR-associated … with K845A, A998K
B14: Arg1135Ala: Arg1135Ala mutant of LbuCas13a (protein, UniProt C7NBY4 1-1159, looked up, variant R1135A)
CRISPR-associated …: B7 CRISPR-associated … with A998K, R1135A

Tested on: target DNA
Settings: SaCas9 mutants

Row | Molecule | DNA cleavage activity
1 | B1 | reduced DNA cleavage activity
2 | B2 | almost no DNA cleavage activity
3 | B3 | almost no DNA cleavage activity
4 | B4 | almost no DNA cleavage activity
5 | B5 | almost completely lacked DNA cleavage activity
6 | B6 | almost completely lacked DNA cleavage activity

Tested on: target RNA
Settings: LbuCas13a HEPN mutants

Row | Molecule | cleavage of target and non-target ssRNA substrate
7 | B7 | significantly reduced the cleavage of both target and non-target ssRNA substrate
8 | B8 | significantly reduced the cleavage of both target and non-target ssRNA substrate
9 | B9 | significantly reduced the cleavage of both target and non-target ssRNA substrate
10 | B10 | significantly reduced the cleavage of both target and non-target ssRNA substrate

Same assay, conditions: LbuCas13a alanine mutants

Row | Molecule | crRNA-guided target RNA cleavage activity
11 | B11 | reduced target RNA cleavage activity
12 | B12 | reduced cleavage activities
13 | B13 | reduced target RNA cleavage activity
14 | B14 | reduced cleavage activities
